Measurements from patent publication US20220098305A1 (Hoffmann-La Roche, published 2022).

T1: human ICOS (human, UniProt Q9Y6W8 21-199)
T1 construct: The cell that carries it is named under assay; also called huICOS; CD278
T1 sequence: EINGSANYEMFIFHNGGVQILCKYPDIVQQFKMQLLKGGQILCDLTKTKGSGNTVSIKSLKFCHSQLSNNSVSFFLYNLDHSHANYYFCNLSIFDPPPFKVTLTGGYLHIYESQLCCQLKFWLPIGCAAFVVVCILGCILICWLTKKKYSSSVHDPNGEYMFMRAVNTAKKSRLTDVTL


Experiments:
human ICOS [1] = target: T1, human ICOS; test: flow cytometry, SR cells
human FAP [2] = target: T2, human FAP (human, UniProt Q12884 1-760); test: flow cytometry, NIH/3T3-huFAP clone 19 cells
T2 construct: also called hu FAP

human FAP [3] = target: T2, human FAP; test: flow cytometry on NIH/3T3-huFAP clone 19 cells, geometric MFI
human ICOS [4] = target: T1, human ICOS; test: flow cytometry on SR cells expressing human ICOS, geometric MFI
human ICOS [5] = target: T1, human ICOS; test: cell-based or functional assay
human ICOS [6] = target: T1, human ICOS; test: flow cytometry, SR cells; remark: listed apart in the source
Protocol: (§1) Briefly, suspension cells were harvested, counted, checked for viability and re-suspended at 1 million cells per ml in FACS buffer (PBS with 0.1% BSA). […] The staining was fixed for 20 min at 4° C. in the dark, using 75 μl of 1% PFA in FACS buffer per well.
(§2) In addition, binding of the above molecules to human SR cells (ATCC® CRL-2262) was performed as described above apart from the following modifications: SR cells were re-suspended at 2 million cells per ml in FACS buffer (BD).
(§3) Fluorescence was analyzed by FACS using a FACS Fortessa (Software FACS Diva). Binding curves and EC50 values were obtained using GraphPadPrism 7.

human ICOS [7] = target: T1, human ICOS; test: flow cytometry, CHO cells expressing human ICOS
Protocol: as §1, §3

human ICOS [8] = target: T1, human ICOS; test: flow cytometry, ICOS+ CHO cells, 120 nM anti-ICOS IgG, no ICOSL
Protocol: (§4) Briefly, cells were harvested, counted, checked for viability and re-suspended at 1 million cells per ml in FACS buffer (PBS with 0.1% BSA). […] Cells were washed again twice with cold PBS 0.1% BSA and then re-incubated and fixed for 20 min at 4° C. in the dark, using 75 μl of 1% PFA in FACS buffer per well. Fluorescence was analyzed by FACS using a FACS Fortessa (Software FACS Diva. Data was analyzed using GraphPadPrism 7.

human ICOS [9] = target: T1, human ICOS; test: flow cytometry, MFI(ICOSL+anti-ICOS)/MFI(anti-ICOS only)*100 at 120 nM; competitor ICOSL
Protocol: as §4

[10] = target: T3, recombinant monomeric human ICOS Fc(kih) Avi tag (human, UniProt P0DOX5 223-449 = IgG part, biotin on the Avi tag in the ligand-blocking and the SPR competition assays); test: SPR competition on human ICOS Fc(kih); second injection 100 nM; competitor (row): Molecule 8
T3 construct: also called recombinant human ICOS; biotinylated human ICOS Fc(kih)
Protocol: (§5) Immobilization levels up to 600 resonance units (RU) were used. […] Bulk refractive index differences were corrected for by subtracting the response obtained on reference flow cell.
(§6) The SPR experiments were performed on a Biacore T200 at 25° C. with HBS-EP as running buffer (0.01 M HEPES pH 7.4, 0.15 M NaCl, 3 mM EDTA, 0.005% Surfactant P20, Biacore, Freiburg/Germany).

human ICOS [11] = target: T1, human ICOS; test: flow cytometry on SR cells expressing human ICOS, PE-labelled secondary antibody, MFI
Protocol: as §1, §2, §3

[12] = target: T3, recombinant monomeric human ICOS …; test: SPR competition on human ICOS Fc(kih); second injection 100 nM; competitor (row): Molecule 18
Protocol: as §5, §6

[13] = target: T3, recombinant monomeric human ICOS …; test: SPR competition on human ICOS Fc(kih); second injection 100 nM; competitor (row): Molecule 20
Protocol: as §5, §6

human ICOS [14] = target: T1, human ICOS; test: flow cytometry, ICOS+ CHO cells, 120 nM anti-ICOS IgG pre-bound, then ICOSL (competitor) 120 nM
Protocol: as §4

[15] = target: T3, recombinant monomeric human ICOS …; test: SPR (Biacore T200, 25 C), antibody captured on anti-mouse IgG, ICOS Fc(kih) 7.5-600 nM as analyte, 1:1 Langmuir fit
Protocol: (§7) All SPR experiments were performed on a Biacore T200 at 25° C. with HBS-EP as running buffer (0.01 M HEPES pH 7.4, 0.15 M NaCl, 3 mM EDTA, 0.005% Surfactant P20, Biacore, Freiburg/Germany).
(§8) Setup 2: Anti-mouse IgG antibody (GE Healthcare, Chicago/US) was directly coupled on a CM5 chip at pH 5.0 using the standard amine coupling kit (Biacore, Freiburg/Germany). The immobilization level was approximately 5000 RU. […] The dissociation was monitored for 720 seconds. Bulk refractive index differences were corrected for by subtracting the response obtained on reference flow cell.

human ICOS [16] = target: T1, human ICOS; test: flow cytometry on CHO cells stably expressing human ICOS, PE-labelled secondary antibody, median fluorescence intensity (MFI)
Protocol: as §1, §3

[17] = target: T3, recombinant monomeric human ICOS …; test: SPR competition on human ICOS Fc(kih); second injection 100 nM; competitor (row): Molecule 14
Protocol: as §5, §6

[18] = target: T3, recombinant monomeric human ICOS …; test: SPR (Biacore T200, 25 C), antibody captured on anti-rabbit Fc, ICOS Fc(kih) 7.5-600 nM as analyte, 1:1 Langmuir fit
Protocol: as §7
as §8, with “1: Anti-rabbit Fc” for “2: Anti-mouse IgG”, “(Jackson ImmunoResearch, Cambridgeshire/UK)” for “(GE Healthcare, Chicago/US)”, “4.5” for “5.0”, “9000” for “5000”

EC50 of activation of Jurkat-NFAT reporter cell line (luminescence) (human ICOS [5]) | EC50 (human ICOS [6]) | EC50 (human ICOS [7]) | MFI (A488), IgG only (human ICOS [8]) | Relative Binding (%) (human ICOS [9]) | binding of the second injection (0 = no binding; 1 = binding) [10] | EC50 (read off the curve) (human ICOS [11]) | binding of the second injection (0 = no binding; 1 = binding) [13] | MFI (A488), IgG + ICOSL (human ICOS [14]) | EC50 (read off the curve) (human ICOS [16]) | Binder | also measured
– | – | – | – | – | – | – | – | – | – | Molecule 40, bispecific 2+1 anti-ICOS (009)/anti-FAP (4B9) huIgG1 P329GLALA kih (bispecific antibody) heavy 1: EVRLDETGGGVVQPGRPMELSCVASGFTFSDYWMNWVRQSPEKGLEWVAQIRNKPYNYETYYSDSVKGRFTISRDDSKSRVYLQMNNLRAEDMGIYYCTWPRLRSSDWHFDVWGAGTTVTVSSASTKGPSVFPLAPSSKSTSGGTAALGCLVKDYFPEPVTVSWNSGALTSGVHTFPAVLQSSGLYSLSSVVTVPSSSLGTQTYICNVNHKPSNTKVDKKVEPKSCDKTHTCPPCPAPEAAGGPSVFLFPPKPKDTLMISRTPEVTCVVVDVSHEDPEVKFNWYVDGVEVHNAKTKPREEQYNSTYRVVSVLTVLHQDWLNGKEYKCKVSNKALGAPIEKTISKAKGQPREPQVCTLPPSRDELTKNQVSLSCAVKGFYPSDIAVEWESNGQPENNYKTTPPVLDSDGSFFLVSKLTVDKSRWQQGNVFSCSVMHEALHNHYTQKSLSLSPGGGGGSGGGGSGGGGSGGGGSEIVLTQSPGTLSLSPGERATLSCRASQSVTSSYLAWYQQKPGQAPRLLINVGSRRATGIPDRFSGSGSGTDFTLTISRLEPEDFAVYYCQQGIMLPPTFGQGTKVEIK heavy 2: not shown light: AIQMTQSPSSLSASLGGEVTITCKASQDINKNIAWYQHKPGRGPRLLIWYTSTLQTGIPSRFSGSGSGRDYSFTISNLEPEDFATYYCLQFDNLYTFGSGTKLEIRRTVAAPSVFIFPPSDEQLKSGTASVVCLLNNFYPREAKVQWKVDNALQSGNSQESVTEQDSKDSTYSLSSTLTLSKADYEKHKVYACEVTHQGLSSPVTKSFNRGEC | EC50 (human ICOS [1]): 0.00174 nM; EC50 (human FAP [2]): 0.00385 nM; EC50 (read off the curve) (human FAP [3]): ~4 nM; EC50 (read off the curve) (human ICOS [4]): ~2 nM
0.08 nM | 0.0014 nM | 0.00297 nM | 7190 MFI | 97.3% | 0 | ~1 nM | 0 | 7000 MFI | ~3 nM | Molecule 14 (muIgG of 009) (antibody, V domains shown, Mouse IgG purified from hybridoma; also called ICOS (009); clone 009) VH: EVRLDETGGGVVQPGRPMELSCVASGFTFSDYWMNWVRQSPEKGLEWVAQIRNKPYNYETYYSDSVKGRFTISRDDSKSRVYLQMNNLRAEDMGIYYCTWPRLRSSDWHFDVWGAGTTVTVSS VL: AIQMTQSPSSLSASLGGEVTITCKASQDINKNIAWYQHKPGRGPRLLIWYTSTLQTGIPSRFSGSGSGRDYSFTISNLEPEDFATYYCLQFDNLYTFGSGTKLEIR | binding of the second injection (0 = no binding; 1 = binding) [12]: 1; Kd [15]: 2 nM; koff [15]: 0.00014 s⁻¹; kon [15]: 61000 M⁻¹ s⁻¹; t1/2 [15]: 1.36 h
0.09 nM | 0.00216 nM | 0.00192 nM | 6320 MFI | 98.2% | 1 | ~2 nM | 1 | 6210 MFI | ~2 nM | Molecule 18 (rbIgG of 1138) (antibody, V domains shown, Rabbit IgG format; also called ICOS (1138); clone 1138) VH: QSLEESGGDLVKPGASLTLTCTASGFDLSSYYYMCWVRQAPGKGLEWIACIYADIYGGTTHYASWAKGRFTISKTSSTTVTLQMTSLTAADTATYFCAREDGSRYGGSGYYNLWGPGTLVTVSS VL: ALVMTQTPSSVSAAVGGTVTINCQASQNIYSNLAWYQQKPGQPPKLLIYAASYLTSGVSSRFKGSGAGTQFTLTISGVECADAATYYCQQGHTTDNIDNAFGGGTEVVVKG | binding of the second injection (0 = no binding; 1 = binding) [17]: 1; Kd [18]: 0.7 nM; koff [18]: 0.00026 s⁻¹; kon [18]: 400000 M⁻¹ s⁻¹; t1/2 [18]: 0.728 h
